What was measured:
Test in all cases: SH3 blot assay with 35S-labeled gst-C3G CB-region
Type in all cases: binding
CrkSH3(N) domain = biological target: T1, CrkSH3(N) domain (Mus musculus, UniProt Q64010)
T1 construct: probed with 1-2 μg/ml ^35 S-labeled gst-fusion CrkSH3(1) domain; made in house; host or cells: bacteria
Protocol: (§1) SH3 Blot Assay. […] of gst or equimolar amounts of SH3-fusion proteins were subjected to SDS-PAGE, electroblotted and incubated with […] (70,000 dpm/ml) ^35 S-labeled gst-C3G CB region as described (Feller et al., supra). Filters were exposed over night.

PI3Kp85-a-SH3 domain = biological target: T2, PI3Kp85-a-SH3 domain (Homo sapiens, UniProt P27986)
T2 construct: The PI3Kp85-a-SH3 domain was a gift of L. Cantley
T2 sequence (P27986 3-79 limits assumed): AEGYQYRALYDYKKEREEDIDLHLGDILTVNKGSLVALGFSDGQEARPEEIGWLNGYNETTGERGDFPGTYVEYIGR
Protocol: as §1

[1] = test system: Grb2, the individual Grb2SH3 domains
Protocol: as §1

T1 sequence (Q64010 132-192 limits assumed): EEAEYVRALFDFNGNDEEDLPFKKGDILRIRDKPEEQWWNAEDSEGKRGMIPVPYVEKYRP

B1: C3G CB-region: C3G region containing all four CB-sequences expressed as 35S-labeled gst-fusion protein (protein)
chain: NSPPPALPPKKRQSAPSPTRVAVVAPMSRATSGSSLPVGINRQDFDVDCYAQRRLSGGSHSYGGESPRLSPCSSIGKLSKSDEQLSSLDRDSGQCSRNTSCETLDHYDPDYEFLQQDLSNADQIPQQTAWNLSPLPESLGESGSPFLGPPFQLPLGGHPQPDGPLAPGQQTDTPPALPKKKRRSAASQTADGSGCRVSYERHPSQYDNISGEDLQSTAPIPSVPYAPFAAILPFQHGGSSAPVEFVGDFTAPESTGDPEKPPPLPEKKQKHMLAYMQLLEDYSEPQPSMFYQTPQNEHIYQQKMKLLMEVYGFSDSFSGVDSVQELAPPPALPPAQRQLEPPAGKDGHPRDPSAVSVVPGKDSRDGSERAPKDP
Question: How did the “binding to gst-fusion constructs containing the CrkSH3(N) domain” value (CrkSH3(N) domain) turn out when B1 was run?
Answer: Its value is “bound strongly”.

Question: And the “binding to PI3Kp85-a-SH3 domain” value (PI3Kp85-a-SH3 domain)?
Answer: Its value is “only bound weakly”.

Question: And the “binding to Grb2 and the individual Grb2SH3 domains” value [1]?
Answer: Its value is “only bound weakly”.

Reference: US5888763A, “Peptides specific for the first Crk-SH3 domain” (The Rockefeller University, priority 1994, dated 1999)
